# Read-outs that look alike come from different tables or passages of the source. Square brackets hold non-standard residues; d marks the D form. Ends that are not written are not given here. Aib = CC(C)(N)C(=O)O
# Legend:
# [1] = Test of solubility of insulin and long-acting insulin conjugate (RP-HPLC against calibration standard curve); type: physicochemical; conditions: for Measurement value (quantitative value calculated by standard calibration curve): pH 6.0 acetic acid buffer, polysorbate, mannitol, sodium chloride, room temperature, supernatant
# Source text: A respective calibration standard curve of insulin and the long-acting insulin conjugate was first confirmed by Reverse Phase-High Performance Liquid Chromatography (RP-HPLC), as in FIG. 1.
# [2] = pH 5.6
Substance,"solubility ([1]; FIG. 2, composition of Table 1, pH 6.0) [mg/mL]","difference between the theoretical value and the measurement value ([1]; dissolved in long-acting insulin conjugate formulation buffer, pH 6.0)","pellets after centrifugation ([1]; long-acting insulin conjugate formulation buffer, all cases, excluding 0.008 mg/mL)","point at which completely dissolved without impurities or pellet (minimum quantitative value) ([1]; serial dilution of test material from about 10 mg/mL, pH 6.0) [mg/mL]",Measurement value (quantitative value calculated by standard calibration curve) ([1]; theoretical quantitative value 0.008 mg/mL) [mg/mL],Measurement value (quantitative value calculated by standard calibration curve) ([1]; theoretical quantitative value 0.04 mg/mL) [mg/mL],Measurement value (quantitative value calculated by standard calibration curve) ([1]; theoretical quantitative value 0.2 mg/mL) [mg/mL],Measurement value (quantitative value calculated by standard calibration curve) ([1]; theoretical quantitative value 1 mg/mL) [mg/mL],Measurement value (quantitative value calculated by standard calibration curve) ([1]; theoretical quantitative value 5 mg/mL) [mg/mL],Measurement value (quantitative value calculated by standard calibration curve) ([1]; theoretical quantitative value 10 mg/mL) [mg/mL],difference between the theoretical value and the measurement value [2],solubility [2] [mg/mL],point at which completely dissolved without impurities or pellet (minimum quantitative value) ([2]; serial dilution of test material from about 5 mg/mL) [mg/mL]
Insulin,0.628,up to 16 times,pellets were observed,0.008,0.000,0.000,0.005,0.047,0.253,0.628,–,–,–
"Oxyntomodulin derivative: oxyntomodulin derivative having the amino acid sequence of SEQ ID NO: 27, cysteine residue at position 30 (H[Aib]QGTFTSDYSKYLDEKRAKEFVQWLMNTC)",–,–,–,–,–,–,–,–,–,–,up to 27 times,0.188,0.008

# From patent US20230220034A1, “METHOD FOR IMPROVING SOLUBILITY OF PROTEIN AND PEPTIDE BY USING IMMUNOGLOGULIN FC FRAGMENT LINKAGE” (HANMI PHARM. CO., LTD., priority 2014, published 2023)
